What was measured:
Experiment in all cases: ELISA
[1] = biological target: HA of A/Solomon Islands/03/2006 (H1N1) (influenza A virus (H1N1))
[2] = biological target: HA of A/Texas/36/1991 (H1N1) (influenza A virus (H1N1))
[3] = biological target: HA of A/Texas/50/2012 (H3N2) (influenza A virus (H3N2))

Measured: EC50 fold over wild-type rFluA-20

B1: rFluA-20 heavy chain mutant Y100aA (antibody, V domains shown)
VH: QVQLQESGPGLVKPSETLSLTCSVSGVSVTSDIYYWTWIRQPPGKGLEWIGYIFYNGDTNYNPSLKSRVTMSIDTSKNEFSLRLTSVTAADTAVYFCARGTEDLGACSSGSCPNHWGQGTLVTVSS
VL: DIQMTQSPSSLSASIGDRVTITCRPSQNIRSFLNWFQHKPGKAPKLLIYAASNLQSGVPSRFSGSGSGTEFTLTIRSLQPEDFATYYCQQSYNTPPTFGQGTKVEIK
> 100 fold: [1] | [2] | [3]

Reference: US20210252150A1
